Experimental findings from article PMC7960543 (The Journal of Biological Chemistry, 2021) are described below.

Sequences and labels used below:
B1: recombinant soluble CD40L (residues 118–261) with no N-terminal KGD motif, wild type [not stated] / CD40 fragment (residues 21–144) fused to GST [not stated] (parent complex)
chain 1: QNPQIAAHVISEASSKTTSVLQWAEKGYYTMSNNLVTLENGKQLTVKRQGLYYIYAQVTFCSNREASSQAPFIASLCLKSPGRFERILLRAANTHSSAKPCGQQSIHLGGVFELQPGASVFVNVTDPSQVSHGTGFTSFGLLKL
chain 2: EPPTACREKQYLINSQCCSLCQPGQKLVSDCTEFTETECLPCGESEFLDTWNRETHCHQHKYCDPNLGLRVQQKGTSETDTICTCEEGWHCTSEACESCVLHRSCSPGFGVKQIATGVSDTICE

The variants in the test derive from B1. Nature of the test: ELISA; GST-CD40 (21–144) immobilized at 100 μg/ml in PBS; CD40L mutants 20 μg/ml; detection with anti-histidine Abs; read off a plot. In general terms: An ELISA detects its analyte on a solid surface through an enzyme-linked reagent.
Turning to chain 1 QNPQIAAHVISEASSKTTSVLQWAEKEYYTMSNNLVTLENGKQLTVKRQGLYYIYAQVTFCSNREASSQAPFIASLCLKSPGRFERILLRAANTHSSAKPCGQQSIHLGGVFELQPGASVFVNVTDPSQVSHGTGFTSFGLLKL [chain 1 G27E], the response is around 0.35 OD450. Regarding chain 1 QNPQIAAHVIRGASSKTTSVLQWAEKGYYTMSNNLVTLENGKQLTVKRQGLYYIYAQVTFCSNREASSQAPFIASLCLKSPGRFERILLRAANTHSSAKPCGQQSIHLGGVFELQPGASVFVNVTDPSQVSHGTGFTSFGLLKL [chain 1 S11R, chain 1 E12G], the response was around 0.29 OD450. chain 1 QNPQIAAHVISEASSKTTSVLQWAETGYYTMSNNLVTLENGKQLTVKRQGLYYIYAQVTFCSNREASSQAPFIASLCLKSPGRFERILLRAANTHSSAKPCGQQSIHLGGVFELQPGASVFVNVTDPSQVSHGTGFTSFGLLKL [chain 1 K26T]: the response is around 0.32 OD450. Next, chain 1 QNPQIAAHVISEASSKTTSVLQWAEKGYYTMSNNLVTPENGKQLTVKRQGLYYIYAQVTFCSNREASSQAPFIASLCLKSPGRFERILLRAANTHSSAKPCGQQSIHLGGVFELQPGASVFVNVTDPSQVSHGTGFTSFGLLKL [chain 1 L38P]: around 0.24 OD450.
